This test addresses human epidermal growth factor receptor expressed on M3-EGFR cells (human) (UniProt P00533).

Substance “DTox-HMP-NLS-EGF modular nanotransporter” showed an average fluorescence of M3-EGFR cell nuclei (anti-His-Tag Alexa Fluor 647) after 2 h incubation with 300 nM MNT (Relative units (RU)) of 44.3.
For the substance “EGF-DTox-HMP-NLS-[Nrf2-peptide] modular nanotransporter”, the average fluorescence of M3-EGFR cell nuclei (anti-His-Tag Alexa Fluor 647) after 2 h incubation with 300 nM MNT (Relative units (RU)) was found to be 44.7.

The values above are taken from article PMC9697344.
